Laboratory results from the supplement of paper PMC10126150.
± gives the standard deviation of the averaged measurements.

System: ATP
Assay: switch fluorescence ratio, 500 uM ATP over buffer (Cy3 cluster intensity, sum of 5 cycles each) (fold (ratio)); higher = stronger signal-on switching upon ATP binding; sequences stand for … in TCGTCGGCAGCGTCAGATGTGTATAAGAGACAGTTTTTTTTTTTTTTTTTTTTTTTTT…TC
Conditions: aptamer strand: ATP DNA aptamer (quencher-CACCTGGGGGAGTATTGCGGAGGAAGG + anchor), 100 nM annealed; ATP concentration: 500 uM
Procedure, shortened: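 Between each of five buffer/ATP cycles, the flow-cell was stripped with NaOH and re-annealed. Each cycle imaged Cy3-labelled switching-strand clusters, annealed to 100 nM quencher-labelled ATP aptamer on a modified Illumina MiSeq flow-cell, first in selection buffer and then after 15 min with 500 uM ATP at 22 °C. The fluorescence ratio is summed target-cycle over summed buffer-cycle Cy3 intensity per cluster, averaged per switch-domain sequence, with clusters outside 100-1000 RFU excluded.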
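Further: ATP exposure 15 min at 22 °C before imaging.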

Sequence	switch fluorescence ratio
GTGTTATCTG	0.978 ± 0.012
GTGTTATGAG	0.995 ± 0.067
GTGTTCTAGT	0.955 ± 0.012
GTGTTGCGGC	0.986 ± 0.016
GTGTTGGAGG	0.996 ± 0.017
GTGTTGTTGG	0.986 ± 0.019
GTGTTTCCTG	0.994 ± 0.028
GTGTTTCCTT	1.02 ± 0.036
GTGTTTGACA	0.9604 ± 0.005
GTGTTTGTTC	0.968 ± 0.013
GTGTTTTACG	1.01 ± 0.021
GTTAAAACTT	1.005 ± 0.0097
GTTAAAGGTA	0.962 ± 0.019
GTTAAATGTG	0.972 ± 0.024
GTTAAATTTT	0.986 ± 0.024
GTTAACGTGG	0.99 ± 0.019
GTTAACTGAG	1.03 ± 0.041
GTTAAGGTTT	1.03 ± 0.063
GTTAATGGAA	0.986 ± 0.039
GTTACAATGG	0.991 ± 0.038
GTTACATAGC	1.08 ± 0.014
GTTACATGCG	0.976 ± 0.02
GTTACGGCAA	1.27 ± 0.064
GTTACTAATG	0.9996 ± 0.0029
GTTACTGGAC	1.12 ± 0.14

Sequence	switch fluorescence ratio
GTTAGAGCCG	1.09 ± 0.062
GTTAGATACG	1 ± 0.028
GTTAGATGGG	1 ± 0.034
GTTAGATGGT	0.9851 ± 0.0037
GTTAGGCCAG	0.986 ± 0.041
GTTAGGGGCG	0.982 ± 0.013
GTTAGGGGGT	0.994 ± 0.027
GTTAGGTAGG	0.9818 ± 0.005
GTTAGTACTG	0.96042 ± 0.00063
GTTATAAAAA	1.01 ± 0.07
GTTATACGTA	1.03 ± 0.019
GTTATAGGAG	0.99 ± 0.019
GTTATAGGGG	0.99 ± 0.018
GTTATAGGTG	1.06 ± 0.065
GTTATAGTGG	0.981 ± 0.01
GTTATGAGTT	0.975 ± 0.029
GTTATGCTCT	1.01 ± 0.014
GTTATGGGGG	1.04 ± 0.013
GTTATGGGTG	0.983 ± 0.029
GTTATTACGT	1.03 ± 0.021
GTTATTAGCT	0.992 ± 0.013
GTTATTATTC	0.9922 ± 0.0057
GTTATTATTG	1.02 ± 0.013
GTTATTGGAG	0.999 ± 0.026
GTTATTGGGA	0.99 ± 0.051

Sequence	switch fluorescence ratio
GTTATTGTTT	0.983 ± 0.041
GTTATTTACT	1.024 ± 0.0033
GTTATTTAGG	0.9966 ± 0.0084
GTTCAAAAGG	0.919 ± 0.028
GTTCAAAGGT	0.96 ± 0.032
GTTCAAATCA	0.997 ± 0.047
GTTCAATTGG	0.98 ± 0.021
GTTCACGTAA	1.16 ± 0.15
GTTCACTTTT	1.02 ± 0.036
GTTCAGGGCT	1.01 ± 0.02
GTTCGAGGGC	1.046 ± 0.002
GTTCGCATTG	1.08 ± 0.024
GTTCGCGGTG	0.998 ± 0.017
GTTCTCAGTG	1.01 ± 0.03
GTTCTGCAAT	3.97 ± 0.11
GTTCTGGGAG	1 ± 0.012
GTTCTTGCGG	0.959 ± 0.022
GTTCTTTGG	0.9949 ± 0.0077
GTTGAAAAAA	1.31 ± 0.73
GTTGAAAAGG	0.971 ± 0.051
GTTGAAGGGA	0.983 ± 0.018
GTTGAAGTTG	0.968 ± 0.02
GTTGACAGG	1.025 ± 0.0066
GTTGACCGGT	1 ± 0.016
GTTGACGGGG	1.01 ± 0.021

Sequence	switch fluorescence ratio
GTTGACGGTG	0.982 ± 0.039
GTTGACTTGA	1.02 ± 0.03
GTTGAGGGA	1.04 ± 0.079
GTTGAGGTCG	0.995 ± 0.022
GTTGAGTATA	1.01 ± 0.033
GTTGATGTAT	0.987 ± 0.021
GTTGCACTTT	0.983 ± 0.052
GTTGCATGGG	0.963 ± 0.012
GTTGCCGGTT	1.026 ± 0.008
GTTGCCTTGC	1.06 ± 0.011
GTTGCGGAAT	1.03 ± 0.023
GTTGCGGGTT	1.01 ± 0.039
GTTGCGTTTT	0.9852 ± 0.0095
GTTGCTAGGT	0.9984 ± 0.0044
GTTGGAATGA	1 ± 0.037
GTTGGACGCT	0.986 ± 0.029
GTTGGAGAGG	0.974 ± 0.087
GTTGGAGATT	0.961 ± 0.042
GTTGGAGGGT	0.977 ± 0.047
GTTGGAGTGC	0.9817 ± 0.0017
GTTGGCTTTG	0.997 ± 0.048
GTTGGGACGA	1 ± 0.015
GTTGGGAGGA	0.989 ± 0.018
GTTGGGAGTC	1.01 ± 0.012
GTTGGGATGT	0.996 ± 0.015

Sequence	switch fluorescence ratio
GTTGGGCACT	0.992 ± 0.033
GTTGGGCCGG	0.987 ± 0.021
GTTGGGGAGG	1.01 ± 0.035
GTTGGGGATT	0.977 ± 0.016
GTTGGGGCCG	0.991 ± 0.0068
GTTGGGGCTT	1.021 ± 0.002
GTTGGGGTGT	1.01 ± 0.013
GTTGGGTTAT	0.982 ± 0.017
GTTGGTAGCC	0.978 ± 0.022
GTTGGTAGGG	0.9979 ± 0.0099
GTTGGTAGGT	0.997 ± 0.019
GTTGGTTAGC	1.02 ± 0.035
GTTGGTTGTA	0.987 ± 0.057
GTTGTAAAGG	1.02 ± 0.026
GTTGTAGATG	1.005 ± 0.0058
GTTGTAGCAC	1.07 ± 0.029
GTTGTAGTCC	1.02 ± 0.022
GTTGTCAGGT	1.001 ± 0.0018
GTTGTCTTTG	1.01 ± 0.031
GTTGTGAATA	0.994 ± 0.028
GTTGTGGGAA	0.98266 ± 0.00039
GTTGTGGGTG	1.03 ± 0.018
GTTGTGGTTT	0.975 ± 0.034
GTTGTGTCTT	0.991 ± 0.041
GTTGTGTTAA	0.997 ± 0.014

Sequence	switch fluorescence ratio
GTTGTTGCAA	1.13 ± 0.21
GTTGTTGTCG	0.974 ± 0.1
GTTGTTTTAG	0.992 ± 0.019
GTTTAAAGAC	0.981 ± 0.02
GTTTAACGGG	1.03 ± 0.051
GTTTAAGTTA	0.991 ± 0.025
GTTTAATCTT	0.9896 ± 0.0031
GTTTAATGGA	1.01 ± 0.021
GTTTAATTGG	1 ± 0.024
GTTTACCTTC	1.04 ± 0.062
GTTTAGAAAG	1.01 ± 0.017
GTTTAGAGGA	1 ± 0.025
GTTTAGAGGT	0.9925 ± 0.0082
GTTTAGAGTG	0.944 ± 0.033
GTTTAGGGGA	0.999 ± 0.015
GTTTAGGGTT	1.02 ± 0.018
GTTTAGTATT	0.999 ± 0.019
GTTTATCGGG	0.964 ± 0.0099
GTTTATGGTG	0.999 ± 0.025
GTTTATTTCG	0.987 ± 0.059
GTTTCAGGGA	1.01 ± 0.013
GTTTCAGGTA	1.02 ± 0.029
GTTTCATGGG	0.9685 ± 0.0041
GTTTCCGATT	0.991 ± 0.019
GTTTCGAGGG	0.974 ± 0.037

Sequence	switch fluorescence ratio
GTTTCGGGGT	1.004 ± 0.0055
GTTTCGTTGT	0.9798 ± 0.0019
GTTTCTCATC	1.02 ± 0.011
GTTTCTTAGA	0.978 ± 0.036
GTTTCTTTTA	0.99 ± 0.02
GTTTGAATTG	0.9879 ± 0.0049
GTTTGAGGGT	0.9939 ± 0.0087
GTTTGAGTCT	1.01 ± 0.028
GTTTGATCGG	0.97 ± 0.013
GTTTGCACTG	1.04 ± 0.021
GTTTGCCTGT	0.9845 ± 0.0094
GTTTGCTTTT	1 ± 0.046
GTTTGGATCG	1 ± 0.015
GTTTGGGATT	1 ± 0.024
GTTTGGGCGG	0.978 ± 0.057
GTTTGGGGTT	0.979 ± 0.031
GTTTGGGTTT	0.992 ± 0.031
GTTTGGTCGG	1.04 ± 0.035
GTTTGTAAGT	1.01 ± 0.045
GTTTGTAGGG	0.988 ± 0.037
GTTTGTATGG	1.01 ± 0.018
GTTTGTCAGC	1.01 ± 0.024
GTTTGTCCGA	1.01 ± 0.012
GTTTGTGC	0.998 ± 0.059
GTTTGTGTCC	0.965 ± 0.079

Sequence	switch fluorescence ratio
GTTTGTTTAG	1.011 ± 0.006
GTTTGTTTGT	0.995 ± 0.019
GTTTTACACG	0.954 ± 0.031
GTTTTAGAGT	0.989 ± 0.02
GTTTTATATG	0.978 ± 0.011
GTTTTATTAG	0.951 ± 0.032
GTTTTCACTC	1.0086 ± 0.00085
GTTTTCCCTT	0.982 ± 0.016
GTTTTCTATA	0.975 ± 0.039
GTTTTGCCTG	0.998 ± 0.0045
GTTTTGGAGC	1.03 ± 0.067
GTTTTGGGAA	1.02 ± 0.026
GTTTTGGTAG	1.001 ± 0.0067
GTTTTGTATT	1 ± 0.029
GTTTTGTTGT	0.99 ± 0.027
GTTTTTAATT	0.95322 ± 0.0005
GTTTTTACCT	1.21 ± 0.19
GTTTTTAGGG	1.02 ± 0.021
GTTTTTATGT	0.973 ± 0.014
GTTTTTCAGG	1 ± 0.017
GTTTTTGAGT	1.016 ± 0.0031
GTTTTTGCTG	0.976 ± 0.024
GTTTTTGGCG	0.94 ± 0.16
GTTTTTTGCG	0.999 ± 0.036
GTTTTTTGGA	1.01 ± 0.018
